Assay results: PMC8800115 (2021)

Target: K63-linked tetraubiquitin (UniProt P0CG48 1-76, G76 to K63 isopeptide bonds between adjacent ubiquitins)
Test: ITC

Kd: 2100 nM
B1: ASCC2 CUE domain (construct of the ITC experiments of Figure 2) (domain or fragment)
chain: AAVGPAMCGVELDSLISQVKDLLPDLGEGFILACLEYYHYDPEQVINNILEERLAPTLSQLDRNLDREM
